Values quoted from earlier work, collected in US20090145201A1, “METHODS AND APPARATUSES FOR REDUCING EFFECTS OF MOLECULE ADSORPTION WITHIN MICROFLUIDIC CHANNELS” (EKSIGENT TECHNOLOGIES, LLC, priority 2005, published 2009).

conditions: source: Cantor and Schimmel 1980, Biophysical Chemistry Part II

Compound	Diffusion Coefficient
[Cl-].[Na+] [NaCl, reference compound]	~1.5e−5 cm^2 · s^−1
NCC(=O)O [glycine, reference compound]	9.33e−6 cm^2 · s^−1
OC[C@H]1O[C@@](CO)(O[C@H]2O[C@H](CO)[C@@H](O)[C@H](O)[C@H]2O)[C@@H](O)[C@@H]1O [sucrose, reference compound]	4.59e−6 cm^2 · s^−1
Bovine serum albumin	6.01e−7 cm^2 · s^−1
Fibrinogen	1.98e−7 cm^2 · s^−1
Myosin	1.10e−7 cm^2 · s^−1
Tropomyosin	2.2e−7 cm^2 · s^−1
lysozyme	1.04e−6 cm^2 · s^−1
